Columns and labels:
[1] = biological target: human KLK7 (SEQ ID NO: 4 plus a C-terminal FLAG tag) (human, UniProt P49862 30-253); test: cell-based or functional assay
[2] = biological target: cyano KLK7 (SEQ ID NO: 6 plus a C-terminal FLAG tag) (cynomolgus monkey, UniProt P49862 30-253 (human entry)); test: cell-based or functional assay
huKLK11 = biological target: T1, huKLK11 (human, UniProt Q9UBX7 54-282, limits assumed); test: SPR (BIAcore T200), as for Table 1
T1 sequence (looked up): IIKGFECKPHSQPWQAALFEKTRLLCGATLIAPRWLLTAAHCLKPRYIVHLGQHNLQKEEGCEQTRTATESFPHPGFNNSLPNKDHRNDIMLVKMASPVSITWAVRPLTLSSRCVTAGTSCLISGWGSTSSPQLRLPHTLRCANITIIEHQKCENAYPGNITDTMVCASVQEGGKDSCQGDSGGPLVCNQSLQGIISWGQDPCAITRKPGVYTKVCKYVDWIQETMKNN

human KLK5 = biological target: T2, human KLK5 (human, UniProt Q9Y337 67-293); test: SPR (BIAcore T200), as for Table 1
T2 construct: also called huKLK5; KLK5 AMC
T2 sequence: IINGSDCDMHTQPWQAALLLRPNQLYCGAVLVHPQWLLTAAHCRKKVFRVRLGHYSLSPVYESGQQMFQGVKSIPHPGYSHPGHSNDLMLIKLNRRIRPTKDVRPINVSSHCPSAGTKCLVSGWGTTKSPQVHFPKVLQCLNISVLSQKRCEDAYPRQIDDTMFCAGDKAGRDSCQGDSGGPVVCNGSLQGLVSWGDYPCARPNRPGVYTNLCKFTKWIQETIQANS

huKLK1 = huKLK1 (human, UniProt P06870 25-262, limits assumed); test: SPR (BIAcore T200), as for Table 1
huKLK1, sequence (P06870 25-262 limits assumed): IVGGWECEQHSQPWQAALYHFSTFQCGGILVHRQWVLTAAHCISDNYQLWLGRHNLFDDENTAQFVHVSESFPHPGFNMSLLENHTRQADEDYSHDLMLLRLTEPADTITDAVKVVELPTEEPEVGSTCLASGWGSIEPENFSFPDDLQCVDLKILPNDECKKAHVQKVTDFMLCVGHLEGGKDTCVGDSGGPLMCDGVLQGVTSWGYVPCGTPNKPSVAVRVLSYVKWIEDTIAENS

huKLK4 = huKLK4 (human, UniProt Q9Y5K2 31-254, limits assumed); test: SPR (BIAcore T200), as for Table 1
huKLK4, sequence (Q9Y5K2 31-254 limits assumed): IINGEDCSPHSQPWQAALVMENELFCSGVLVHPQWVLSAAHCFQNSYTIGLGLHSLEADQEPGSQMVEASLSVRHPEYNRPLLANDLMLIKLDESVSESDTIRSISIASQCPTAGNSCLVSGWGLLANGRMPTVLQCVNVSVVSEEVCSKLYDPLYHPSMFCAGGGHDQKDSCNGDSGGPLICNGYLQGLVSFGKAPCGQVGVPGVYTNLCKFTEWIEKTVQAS

human KLK7 = biological target: T3, human KLK7 (human, UniProt P49862 30-253); test: SPR BIAcore T200, antibody on protein A chip, 25 C
T3 construct: Antigen injected in SPR; also called hu KLK7; huKLK7
T3 sequence (P49862 30-253): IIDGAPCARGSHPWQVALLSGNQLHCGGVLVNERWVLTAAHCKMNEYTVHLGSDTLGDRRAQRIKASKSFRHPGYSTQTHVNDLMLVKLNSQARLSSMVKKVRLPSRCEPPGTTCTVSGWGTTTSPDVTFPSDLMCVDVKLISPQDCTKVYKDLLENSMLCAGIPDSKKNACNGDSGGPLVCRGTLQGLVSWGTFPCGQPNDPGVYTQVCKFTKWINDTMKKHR
Experimental: (§1) The binding affinity of the antibodies was determined by BIAcore™ T200 machine. Rabbit antibodies were recombinantly expressed. For kinetics measurements, antibodies were captured on research grade protein A chip (GE Healthcare, USA) to achieve approximately 300 RU. Ten-fold serial dilutions of human and cyano KLK7 were injected in HBS-P buffer at 25° C. with a flow rate of 30 μL/min. Association rates (ka) and dissociation rates (kd) were calculated using a 1:1 Langmuir binding model (BIAcore™ T200 Evaluation Software version 2.0). The equilibrium dissociation constant (KD) was calculated as the ratio kd/ka.

cynomolgus monkey KLK7 = biological target: T4, cynomolgus monkey KLK7 (cynomolgus monkey, UniProt P49862 30-253 (human entry)); test: SPR BIAcore T200, antibody on protein A chip, 25 C
T4 construct: Antigen injected in SPR; also called Cy KLK7; cyno KLK7
T4 sequence (P49862 other isoform, or with tags, fused parts or gaps): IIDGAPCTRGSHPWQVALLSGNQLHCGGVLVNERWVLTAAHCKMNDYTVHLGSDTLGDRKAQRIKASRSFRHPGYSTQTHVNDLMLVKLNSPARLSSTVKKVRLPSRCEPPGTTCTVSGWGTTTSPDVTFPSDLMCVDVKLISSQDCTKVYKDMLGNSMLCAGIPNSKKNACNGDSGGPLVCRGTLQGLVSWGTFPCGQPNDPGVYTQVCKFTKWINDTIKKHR
Experimental: as §1

cyano KLK7 (SEQ ID NO: 6 plus a C-terminal FLAG tag), sequence (P49862 other isoform, or with tags, fused parts or gaps): as above
human KLK7 (SEQ ID NO: 4 plus a C-terminal FLAG tag), sequence (P49862 30-253): as the sequence (P49862 30-253) above

IC50, KLK7 direct functional assay (Mca peptide substrate), bivalency not accounted for [1]: 0.11 nM
IC50, KLK7 direct functional assay (Mca peptide substrate), bivalency not accounted for [2]: 0.15 nM
binding result (huKLK11): no binding
binding result (human KLK5): no binding
binding result (huKLK1): no binding
binding result (huKLK4): no binding
koff (human KLK7): < 1e-06 s⁻¹
koff (cynomolgus monkey KLK7): < 1e-06 s⁻¹
B1: 14H11 (antibody, V domains shown)
VH: QSLEESGGDLVKPGASLTLTCTASGFSFSSSYYMCWVRQAPGKGLEWIASIYAGSSGAPYYAGWAKGRFTISKTSSTAVTLQMSSLTAADTATYFCAREGFAETGGYGYAAYFNLWGPGTLVTVSS
VL: AIEMTQSPPSLSASVGETVRIRCLASEDIASSVSWYQQKPGKPPTLLIYGASNLESGVPPRFTGSGSGTDYTLTIGGVQAEDAATYYCLGGYSYSSTGTAFGAGTKVEIK
notes: Recombinant rabbit anti-KLK7 monoclonal antibody, expressed in Expi293 cells, protein A purified, bivalent; also called rb.14H11

From patent US20240084042A1 (Genentech, published 2024)
